Holding throughout (conditions): both partners purified
The target of one experiment is T1, Flag-tagged hSpt16 (human, UniProt Q9Y5B9 1-1047).
T1 construct: human SUPT16H (hSpt16); methods print 'Flag-hSpt16', legends 'Spt16-FLAG'; also called Spt16-FLAG; Flag-hSpt16; source: Sf9 cells (pFastBac-FLAG-hSpt16), purified; also co-expressed with untagged hSSRP1 in Sf9, in cell extract
The experiment is described as follows: pull-down; Ni-NTA beads, His6-tagged NDF (WT, truncates or mutants; 40 pmol) as bait with 20 pmol Flag-tagged hSpt16 or FACT in 300 µl of 10 mM Tris-HCl pH 7.5, 200 mM NaCl, 0.2% Nonidet P-40, 10% glycerol, 4 °C 3 h; SDS-PAGE, silver staining.

Experiment [1] concerns the target T2, FACT complex used as prey in the FLAG pull-down with NDF-Flag (his-FACT) (human, UniProt Q9Y5B9 1-1047; Q08945 1-709).
T2 construct: human SUPT16H (hSpt16); human SSRP1; the his-tagged subunits are surmised because the bait was held on Flag M2 beads; source: Sf9 cells (Bac-to-Bac), his-FACT subunits expressed separately, purified similar to his-hNDF
The experiment is described as follows: pull-down; Flag M2 beads, NDF-Flag as bait; 10 mM Tris-HCl pH 7.5, 200 mM NaCl, 0.2% Nonidet P-40, 10% glycerol, 4 °C 3 h; SDS-PAGE, silver staining.

Experiment [2] concerns the target T3, His6-hSpt16 (recombinant his-tagged Spt16 subunit of FACT) (human, UniProt Q9Y5B9 1-1047).
T3 construct: human SUPT16H (hSpt16); The His6 tag was inserted into pFastBac-FLAG-hSpt16; also called his-FACT subunit; source: Sf9 cells (Bac-to-Bac), expressed separately, purified similar to his-hNDF
Described as above.

Experiment [3] deals with T4, Flag-tagged FACT complex (Flag-hSpt16 + untagged hSSRP1) (human, UniProt Q9Y5B9 1-1047; Q08945 1-709).
T4 construct: human SUPT16H (hSpt16); human SSRP1, untagged; complex formed beforehand by co-expression; also called FACT-FLAG; hFACT; source: Sf9 cells, co-expressed, purified (anti-Flag M2 agarose, 3x Flag peptide elution)
The experiment is described as follows: co-sedimentation; sedimentation assay of condensates: NDF and FACT mixed in a 100 mM NaCl buffer without PEG, 10 min at 22 °C, 17,200g 10 min; supernatant and pellet on SDS-PAGE, Coomassie.

T1 sequence (Q9Y5B9 whole entry): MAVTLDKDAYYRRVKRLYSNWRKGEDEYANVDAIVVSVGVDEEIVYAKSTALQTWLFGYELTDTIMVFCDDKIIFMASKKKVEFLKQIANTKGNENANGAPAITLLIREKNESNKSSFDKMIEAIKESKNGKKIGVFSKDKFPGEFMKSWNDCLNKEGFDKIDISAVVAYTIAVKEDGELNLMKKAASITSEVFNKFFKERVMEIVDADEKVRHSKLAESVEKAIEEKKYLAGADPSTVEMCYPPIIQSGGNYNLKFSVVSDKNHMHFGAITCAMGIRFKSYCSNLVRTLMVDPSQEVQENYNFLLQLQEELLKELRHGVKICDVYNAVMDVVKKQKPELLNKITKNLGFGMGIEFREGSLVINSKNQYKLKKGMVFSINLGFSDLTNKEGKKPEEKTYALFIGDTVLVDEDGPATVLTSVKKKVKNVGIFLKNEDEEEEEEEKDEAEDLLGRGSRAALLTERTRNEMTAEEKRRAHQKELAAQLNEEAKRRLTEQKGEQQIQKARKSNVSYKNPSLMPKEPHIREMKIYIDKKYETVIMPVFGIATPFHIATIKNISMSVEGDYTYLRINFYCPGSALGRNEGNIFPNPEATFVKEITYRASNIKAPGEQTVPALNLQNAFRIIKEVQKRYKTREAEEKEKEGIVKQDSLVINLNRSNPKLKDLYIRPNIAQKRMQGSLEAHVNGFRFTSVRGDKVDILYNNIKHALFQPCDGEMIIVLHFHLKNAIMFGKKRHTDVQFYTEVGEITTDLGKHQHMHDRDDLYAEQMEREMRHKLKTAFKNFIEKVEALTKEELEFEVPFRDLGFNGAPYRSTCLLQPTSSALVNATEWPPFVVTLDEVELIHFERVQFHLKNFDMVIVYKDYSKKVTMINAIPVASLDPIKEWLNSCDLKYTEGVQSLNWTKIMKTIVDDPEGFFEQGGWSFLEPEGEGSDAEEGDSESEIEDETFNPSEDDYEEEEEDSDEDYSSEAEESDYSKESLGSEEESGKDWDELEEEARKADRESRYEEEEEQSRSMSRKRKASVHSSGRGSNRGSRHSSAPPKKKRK
T2 sequence (Q9Y5B9 whole entry, chain 1 of 2): as the sequence (Q9Y5B9 whole entry) above
T2 sequence (Q08945 whole entry, chain 2 of 2): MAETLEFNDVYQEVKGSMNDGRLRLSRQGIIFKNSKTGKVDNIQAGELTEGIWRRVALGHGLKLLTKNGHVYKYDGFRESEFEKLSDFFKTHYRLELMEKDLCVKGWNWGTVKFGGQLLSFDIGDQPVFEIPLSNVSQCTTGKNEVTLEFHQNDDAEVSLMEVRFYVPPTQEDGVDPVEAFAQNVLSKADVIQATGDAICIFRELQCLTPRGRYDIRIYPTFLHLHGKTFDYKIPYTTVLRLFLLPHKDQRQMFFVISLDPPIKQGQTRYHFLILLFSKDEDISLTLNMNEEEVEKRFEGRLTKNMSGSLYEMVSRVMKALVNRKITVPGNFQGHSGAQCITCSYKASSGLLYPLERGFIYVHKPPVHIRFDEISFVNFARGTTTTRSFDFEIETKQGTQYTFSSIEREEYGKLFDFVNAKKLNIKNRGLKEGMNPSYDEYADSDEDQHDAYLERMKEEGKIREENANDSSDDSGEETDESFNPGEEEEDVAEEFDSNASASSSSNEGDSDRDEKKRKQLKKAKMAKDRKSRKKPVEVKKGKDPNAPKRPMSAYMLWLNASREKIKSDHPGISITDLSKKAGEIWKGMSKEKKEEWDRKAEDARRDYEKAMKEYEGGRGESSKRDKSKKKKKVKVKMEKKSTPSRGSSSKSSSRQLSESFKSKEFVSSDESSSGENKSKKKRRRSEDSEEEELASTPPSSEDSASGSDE
T3 sequence (Q9Y5B9 whole entry): as the sequence (Q9Y5B9 whole entry) above
T4 sequence (Q9Y5B9 whole entry, chain 1 of 2): as the sequence (Q9Y5B9 whole entry) above
T4 sequence (Q08945 whole entry, chain 2 of 2): as the sequence (Q08945 whole entry, chain 2 of 2) above

B1: NDF_K161A, full-length, His6-tagged (natural protein, human, UniProt Q49A26 1-553, looked up)
chain: MAAVSLRLGDLVWGKLGRYPPWPGKIVNPPKDLKKPRGKKCFFVKFFGTEDHAWIKVEQLKPYHAHKEEMIKINKGKRFQQAVDAVEEFLRRAKGKDQTSSHNSSDDKNRRNSSEERSRPNSGDEKRKLSLSEGKVKKNMGEGKKRVSSGSSERGSKSPLARAQEQSPRKRGRPPKDEKDLTIPESSTVKGMMAGPMAAFKWQPTASEPVKDADPHFHHFLLSQTEKPAVCYQAITKKLKICEEETGSTSIQAADSTAVNGSITPTDKKIGFLGLGLMGSGIVSNLLKMGHTVTVWNRTAEKCDLFIQEGARLGRTPAEVVSTCDITFACVSDPKAAKDLVLGPSGVLQGIRPGKCYVDMSTVDADTVTELAQVIVSRGGRFLEAPVSGNQQLSNDGMLVILAAGDRGLYEDCSSCFQAMGKTSFFLGEVGNAAKMMLIVNMVQGSFMATIAEGLTLAQVTGQSQQTLLDILNQGQLASIFLDQKCQNILQGNFKPDFYLKYIQKDLRLAIALGDAVNHPTPMAAAANEVYKRAKALDQSDNDMSAVYRAYIH
notes: human NDF (Glyr1), full-length, K161A; source: bacterial expression (pET21b), purified
For the molecule B1, the binding result with Flag-tagged hSpt16 is “binds”.

B2: hNDF-FLAG (recombinant NDF-Flag) (natural protein, human, UniProt Q49A26 1-553, looked up)
chain: MAAVSLRLGDLVWGKLGRYPPWPGKIVNPPKDLKKPRGKKCFFVKFFGTEDHAWIKVEQLKPYHAHKEEMIKINKGKRFQQAVDAVEEFLRRAKGKDQTSSHNSSDDKNRRNSSEERSRPNSGDEKRKLSLSEGKVKKNMGEGKKRVSSGSSERGSKSPLKRAQEQSPRKRGRPPKDEKDLTIPESSTVKGMMAGPMAAFKWQPTASEPVKDADPHFHHFLLSQTEKPAVCYQAITKKLKICEEETGSTSIQAADSTAVNGSITPTDKKIGFLGLGLMGSGIVSNLLKMGHTVTVWNRTAEKCDLFIQEGARLGRTPAEVVSTCDITFACVSDPKAAKDLVLGPSGVLQGIRPGKCYVDMSTVDADTVTELAQVIVSRGGRFLEAPVSGNQQLSNDGMLVILAAGDRGLYEDCSSCFQAMGKTSFFLGEVGNAAKMMLIVNMVQGSFMATIAEGLTLAQVTGQSQQTLLDILNQGQLASIFLDQKCQNILQGNFKPDFYLKYIQKDLRLAIALGDAVNHPTPMAAAANEVYKRAKALDQSDNDMSAVYRAYIH
notes: human nucleosome destabilizing factor (NDF; Glyr1); source: bacterial expression (pET21b-hNDF-FLAG), purified as previously described
For the molecule B2, the binding result in experiment [1] and in experiment [2] was “binds” each time.

B3: NDF_R162A, full-length, His6-tagged (natural protein, human, UniProt Q49A26 1-553, looked up)
chain: MAAVSLRLGDLVWGKLGRYPPWPGKIVNPPKDLKKPRGKKCFFVKFFGTEDHAWIKVEQLKPYHAHKEEMIKINKGKRFQQAVDAVEEFLRRAKGKDQTSSHNSSDDKNRRNSSEERSRPNSGDEKRKLSLSEGKVKKNMGEGKKRVSSGSSERGSKSPLKAAQEQSPRKRGRPPKDEKDLTIPESSTVKGMMAGPMAAFKWQPTASEPVKDADPHFHHFLLSQTEKPAVCYQAITKKLKICEEETGSTSIQAADSTAVNGSITPTDKKIGFLGLGLMGSGIVSNLLKMGHTVTVWNRTAEKCDLFIQEGARLGRTPAEVVSTCDITFACVSDPKAAKDLVLGPSGVLQGIRPGKCYVDMSTVDADTVTELAQVIVSRGGRFLEAPVSGNQQLSNDGMLVILAAGDRGLYEDCSSCFQAMGKTSFFLGEVGNAAKMMLIVNMVQGSFMATIAEGLTLAQVTGQSQQTLLDILNQGQLASIFLDQKCQNILQGNFKPDFYLKYIQKDLRLAIALGDAVNHPTPMAAAANEVYKRAKALDQSDNDMSAVYRAYIH
notes: human NDF (Glyr1), full-length, R162A; source: bacterial expression (pET21b), purified
With B3, the binding result with Flag-tagged hSpt16 was “binds”.

B4: His6-hNDF, full-length wild type (natural protein, human, UniProt Q49A26 1-553, looked up)
chain: MAAVSLRLGDLVWGKLGRYPPWPGKIVNPPKDLKKPRGKKCFFVKFFGTEDHAWIKVEQLKPYHAHKEEMIKINKGKRFQQAVDAVEEFLRRAKGKDQTSSHNSSDDKNRRNSSEERSRPNSGDEKRKLSLSEGKVKKNMGEGKKRVSSGSSERGSKSPLKRAQEQSPRKRGRPPKDEKDLTIPESSTVKGMMAGPMAAFKWQPTASEPVKDADPHFHHFLLSQTEKPAVCYQAITKKLKICEEETGSTSIQAADSTAVNGSITPTDKKIGFLGLGLMGSGIVSNLLKMGHTVTVWNRTAEKCDLFIQEGARLGRTPAEVVSTCDITFACVSDPKAAKDLVLGPSGVLQGIRPGKCYVDMSTVDADTVTELAQVIVSRGGRFLEAPVSGNQQLSNDGMLVILAAGDRGLYEDCSSCFQAMGKTSFFLGEVGNAAKMMLIVNMVQGSFMATIAEGLTLAQVTGQSQQTLLDILNQGQLASIFLDQKCQNILQGNFKPDFYLKYIQKDLRLAIALGDAVNHPTPMAAAANEVYKRAKALDQSDNDMSAVYRAYIH
notes: human nucleosome destabilizing factor (NDF; Glyr1), full-length; vector name has His6 before hNDF, a legend prints 'NDF-his'; also called NDF-his; His6-tagged NDF-WT; source: bacterial expression (pET21b-His6-hNDF), purified as previously described
For the molecule B4, the binding result (in experiment [3]; with Flag-tagged hSpt16) was “binds” each time.

For the origin of these results see publication PMC12611769, “Phase-separated NDF−FACT condensates facilitate transcription elongation on chromatin” (Nature Cell Biology, 2025).
